Data on five substances can be found in article PMC3226476.

Like-named read-outs stand apart in the source and are kept apart here.

Holding throughout (test): co-sedimentation
For test [1], the target named is Taxol-stabilized microtubules (polymerized porcine brain tubulin) (porcine (purified from brain)) (UniProt P02550).
For test [2] the target is unchanged. This is another data set of the same source.
Test [3] concerns the target INF2-FH1FH2 (human, 469-941) (human) (UniProt Q27J81).
Test [4] addresses mDia1-FH1FH2C (mouse, amino acids 548-1255) (mouse) (UniProt O08808).
For test [5], the target named is mDia2-FH1FH2C (mouse, 521-1171) (mouse) (UniProt Q9Z207).

“GST-INF2-Cterm (human CAAX variant, 941-1249) (from UniProt Q27J81 941-1249) (domain or fragment)”: the Kd – broadly, a measure of binding affinity in units of concentration – in test [1] is over 20 µM. Still for that read-out and setting: for “GST-mDia1-Cterm (1149-1255) (from UniProt O08808 1149-1255) (domain or fragment)” the value was over 20 µM. “GST-mDia2-Cterm (1009-1171) (from UniProt Q9Z207 1009-1171) (domain or fragment)”: the Kd in test [1] was 710 µM; in test [2], 0.71 µM. The stoichiometry N (tubulin dimer:formin dimer) in test [1] worked out at 0.6. Consider “LatB-stabilized actin monomers (rabbit skeletal muscle actin) (from UniProt P68135 1-377) (natural protein)”, for which the percent of the actin in the pellet in test [3], in test [4] and in test [5] was 10% throughout.

In test [1], “mDia1-FH1FH2C (mouse, amino acids 548-1255) (from UniProt O08808 548-1255) (domain or fragment)” displayed a stoichiometry N (tubulin dimer:formin dimer) of 3.09.
